Among the data in PMC7492729, “CsrA-Mediated Translational Activation of ymdA Expression in Escherichia coli” are binding result and Kd values, retold here.

Numbering of substitutions follows the chain as printed.

Common to all, as to details: protein: recombinant; tags: His6 (C-terminal, as named CsrA-H6); chain copies: 2; label: 5'-32P
Series [1] deals with T1, CsrA-H6 (Escherichia coli, UniProt P69913 1-61). The series is described as follows: RNase T1 footprinting; 10 mM MgCl2; BS1 and BS2 protected, BS* and SD GGA not; 10 mM Tris-HCl pH 7.5, 10 mM MgCl2, 100 mM KCl, 40 ng yeast tRNA per 10 ul, 7.5% glycerol, 0.1 mg/ml xylene cyanol, 0.1 nM RNA (2 nM RNA plus 1 ug acetylated BSA for footprint), 37 C 30 min.
T1 sequence (P69913 whole entry): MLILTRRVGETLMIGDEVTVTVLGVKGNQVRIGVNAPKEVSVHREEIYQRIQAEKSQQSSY
Series [2] has as its target T1, CsrA-H6. Nature of the series: RNase T1 footprinting; 10 mM MgCl2; binds BS1 in absence of BS2; 10 mM Tris-HCl pH 7.5, 10 mM MgCl2, 100 mM KCl, 40 ng yeast tRNA per 10 ul, 7.5% glycerol, 0.1 mg/ml xylene cyanol, 0.1 nM RNA (2 nM RNA plus 1 ug acetylated BSA for footprint), 37 C 30 min.
The target in series [3] is T1, CsrA-H6. Nature of the series: EMSA; 10 mM MgCl2, 40 ng yeast tRNA; 10 mM Tris-HCl pH 7.5, 10 mM MgCl2, 100 mM KCl, 40 ng yeast tRNA per 10 ul, 7.5% glycerol, 0.1 mg/ml xylene cyanol, 0.1 nM RNA (2 nM RNA plus 1 ug acetylated BSA for footprint), 37 C 30 min. For orientation: A gel shift assay detects complexes by their altered migration in electrophoresis.

B1: ymdA leader RNA (footprint) (structured_RNA)
RNA: GUCUUAAUUUGUUGAAAUAUCGAGCAUAAGAUGAAUCUGGAGAGAAUGGUCUGCUGCGAAUCAGCCAACCUGAAAGUAUGGAUAACACAACCCUCAAGGAUGACUAAUCAUUGAGGAAAUAGAAUAAA
In the case of B1, in the series with CsrA-H6 [1], the binding result is recorded as “binds”.

B2: ymdA leader RNA BS2 mutant (footprint) (structured_RNA)
RNA: B1 RNA with G98A
For the molecule B2, in the series with CsrA-H6 [2], the binding result is reported as “binds”.

B3: ymdA leader RNA (EMSA) (structured_RNA)
RNA: AAGAUGAAUCUGGAGAGAAUGGUCUGCUGCGAAUCAGCCAACCUGAAAGUAUGGAUAACACAACCCUCAAGGAUGACUAAUCAUUGAGGAAAUAGAAUAAA
Take B3: the Kd with CsrA-H6 [3] is 0.048 ± 0.003 µM.

In general, Kd refers to the concentration at which binding is half-saturated.
